Source: publication PMC2173217 (The Journal of Cell Biology, 2002)
Where two headings read alike, the source gives them in different places.

B1: Sec13/31p (complex, S. cerevisiae)
chain 1: MVVIANAHNELIHDAVLDYYGKRLATCSSDKTIKIFEVEGETHKLIDTLTGHEGPVWRVDWAHPKFGTILASCSYDGKVLIWKEENGRWSQIAVHAVHSASVNSVQWAPHEYGPLLLVASSDGKVSVVEFKENGTTSPIIIDAHAIGVNSASWAPATIEEDGEHNGTKESRKFVTGGADNLVKIWKYNSDAQTYVLESTLEGHSDWVRDVAWSPTVLLRSYLASVSQDRTCIIWTQDNEQGPWKKTLLKEEKFPDVLWRASWSLSGNVLALSGGDNKVTLWKENLEGKWEPAGEVHQ
chain 2: MVKLAEFSRTATFAWSHDKIPLLVSGTVSGTVDANFSTDSSLELWSLLAADSEKPIASLQVDSKFNDLDWSHNNKIIAGALDNGSLELYSTNEANNAINSMARFSNHSSSVKTVKFNAKQDNVLASGGNNGEIFIWDMNKCTESPSNYTPLTPGQSMSSVDEVISLAWNQSLAHVFASAGSSNFASIWDLKAKKEVIHLSYTSPNSGIKQQLSVVEWHPKNSTRVATATGSDNDPSILIWDLRNANTPLQTLNQGHQKGILSLDWCHQDEHLLLSSGRDNTVLLWNPESAEQLSQFPARGNWCFKTKFAPEAPDLFACASFDNKIEVQTLQNLTNTLDEQETETKQQESETDFWNNVSREESKEKPTVFHLQAPTWYGEPSPAAHWAFGGKLVQITPDGKGVSITNPKISGLESNTTLSEALKTKDFKPLINQRLVKVIDDVNEEDWNLLEKLSMDGTEEFLKEALAFDNDESDAQDDANNEKEDDGEEFFQQIETNFQPEGDFSLSGNIEQTISKNLVSGNIKSAVKNSLENDLLMEAMVIALDSNNERLKESVKNAYFAKYGSKSSLSRILYSISKREVDDLVENLDVSQWKFISKAIQNLYPNDIAQRNEMLIKLGDRLKENGHRQDSLTLYLAAGSLDKVASIWLSEFPDLEDKLKKDNKTIYEAHSECLTEFIERFTVFSNFINGSSTINNEQLIAKFLEFINLTTSTGNFELATEFLNSLPSDNEEVKTEKARVLIASGKSLPAQNPATATTSKAKYTNAKTNKNVPVLPTPGMPSTTSIPSMQAPFYGMTPGASANALPPKPYVPATTTSAPVHTEGKYAPPSQPSMASPFVNKTNSSTRLNSFAPPPNPYATATVPATNVSTTSIPQNTFAPIQPGMPIMGDYNAQSSSIPSQPPINAVSGQTPHLNRKANDGWNDLPLKVKEKPSRAKAVSVAPPNILSTPTPLNGIPANAASTMPPPPLSRAPSSVSMVSPPPLHKNSRVPSLVATSESPRASISNPYAPPQSSQQFPIGTISTANQTSNTAQVASSNPYAPPPQQRVATPLSGGVPPAPLPKASNPYAPTATTQPNGSSYPPTGPYTNNHTMTSPPPVFNKPPTGPPPISMKKRSNKLASIEQNPSQGATYPPTLSSSASPLQPSQPPTLASQVNTSAENVSHEIPADQQPIVDFLKEELARVTPLTPKEYSKQLKDCDKRLKILFYHLEKQDLLTQPTIDCLHDLVALMKEKKYKEAMVIHANIATNHAQEGGNWLTGVKRLIGIAEATLN
B2: Sar1p (enzyme)
chain: not shown
B3: Sec23/24p (complex, S. cerevisiae)
chain 1: MDFETNEDINGVRFTWNVFPSTRSDANSNVVPVGCLYTPLKEYDELNVAPYNPVVCSGPHCKSILNPYCVIDPRNSSWSCPICNSRNHLPPQYTNLSQENMPLELQSTTIEYITNKPVTVPPIFFFVVDLTSETENLDSLKESIITSLSLLPPNALIGLITYGNVVQLHDLSSETIDRCNVFRGDREYQLEALTEMLTGQKPTGPGGAASHLPNAMNKVTPFSLNRFFLPLEQVEFKLNQLLENLSPDQWSVPAGHRPLRATGSALNIASLLLQGCYKNIPARIILFASGPGTVAPGLIVNSELKDPLRSHHDIDSDHAQHYKKACKFYNQIAQRVAANGHTVDIFAGCYDQIGMSEMKQLTDSTGGVLLLTDAFSTAIFKQSYLRLFAKDEEGYLKMAFNGNMAVKTSKDLKVQGLIGHASAVKKTDANNISESEIGIGATSTWKMASLSPYHSYAIFFEIANTAANSNPMMSAPGSADRPHLAYTQFITTYQHSSGTNRIRVTTVANQLLPFGTPAIAASFDQEAAAVLMARIAVHKAETDDGADVIRWLDRTLIKLCQKYADYNKDDPQSFRLAPNFSLYPQFTYYLRRSQFLSVFNNSPDETAFYRHIFTREDTTNSLIMIQPTLTSFSMEDDPQPVLLDSISVKPNTILLLDTFFFILIYHGEQIAQWRKAGYQDDPQYADFKALLEEPKLEAAELLVDRFPLPRFIDTEAGGSQARFLLSKLNPSDNYQDMARGGSTIVLTDDVSLQNFMTHLQQVAVSGQA
chain 2: MSHHKKRVYPQAQLQYGQNATPLQQPAQFMPPQDPAAAGMSYGQMGMPPQGAVPSMGQQQFLTPAQEQLHQQIDQATTSMNDMHLHNVPLVDPNAYMQPQVPVQMGTPLQQQQQPMAAPAYGQPSAAMGQNMRPMNQLYPIDLLTELPPPITDLTLPPPPLVIPPERMLVPSELSNASPDYIRSTLNAVPKNSSLLKKSKLPFGLVIRPYQHLYDDIDPPPLNEDGLIVRCRRCRSYMNPFVTFIEQGRRWRCNFCRLANDVPMQMDQSDPNDPKSRYDRNEIKCAVMEYMAPKEYTLRQPPPATYCFLIDVSQSSIKSGLLATTINTLLQNLDSIPNHDERTRISILCVDNAIHYFKIPLDSENNEESADQINMMDIADLEEPFLPRPNSMVVSLKACRQNIETLLTKIPQIFQSNLITNFALGPALKSAYHLIGGVGGKIIVVSGTLPNLGIGKLQRRNESGVVNTSKETAQLLSCQDSFYKNFTIDCSKVQITVDLFLASEDYMDVASLSNLSRFTAGQTHFYPGFSGKNPNDIVKFSTEFAKHISMDFCMETVMRARGSTGLRMSRFYGHFFNRSSDLCAFSTMPRDQSYLFEVNVDESIMADYCYVQVAVLLSLNNSQRRIRIITLAMPTTESLAEVYASADQLAIASFYNSKAVEKALNSSLDDARVLINKSVQDILATYKKEIVVSNTAGGAPLRLCANLRMFPLLMHSLTKHMAFRSGIVPSDHRASALNNLESLPLKYLIKNIYPDVYSLHDMADEAGLPVQTEDGEATGTIVLPQPINATSSLFERYGLYLIDNGNELFLWMGGDAVPALVFDVFGTQDIFDIPIGKQEIPVVENSEFNQRVRNIINQLRNHDDVITYQSLYIVRGASLSEPVNHASAREVATLRLWASSTLVEDKILNNESYREFLQIMKARISK

What was measured:
Assay in all cases: liposome flotation
[1] = target: B3
[2] = target: T1, MBP–Sec16p (S. cerevisiae, UniProt P48415 1-2195)
T1 sequence (P48415 whole entry): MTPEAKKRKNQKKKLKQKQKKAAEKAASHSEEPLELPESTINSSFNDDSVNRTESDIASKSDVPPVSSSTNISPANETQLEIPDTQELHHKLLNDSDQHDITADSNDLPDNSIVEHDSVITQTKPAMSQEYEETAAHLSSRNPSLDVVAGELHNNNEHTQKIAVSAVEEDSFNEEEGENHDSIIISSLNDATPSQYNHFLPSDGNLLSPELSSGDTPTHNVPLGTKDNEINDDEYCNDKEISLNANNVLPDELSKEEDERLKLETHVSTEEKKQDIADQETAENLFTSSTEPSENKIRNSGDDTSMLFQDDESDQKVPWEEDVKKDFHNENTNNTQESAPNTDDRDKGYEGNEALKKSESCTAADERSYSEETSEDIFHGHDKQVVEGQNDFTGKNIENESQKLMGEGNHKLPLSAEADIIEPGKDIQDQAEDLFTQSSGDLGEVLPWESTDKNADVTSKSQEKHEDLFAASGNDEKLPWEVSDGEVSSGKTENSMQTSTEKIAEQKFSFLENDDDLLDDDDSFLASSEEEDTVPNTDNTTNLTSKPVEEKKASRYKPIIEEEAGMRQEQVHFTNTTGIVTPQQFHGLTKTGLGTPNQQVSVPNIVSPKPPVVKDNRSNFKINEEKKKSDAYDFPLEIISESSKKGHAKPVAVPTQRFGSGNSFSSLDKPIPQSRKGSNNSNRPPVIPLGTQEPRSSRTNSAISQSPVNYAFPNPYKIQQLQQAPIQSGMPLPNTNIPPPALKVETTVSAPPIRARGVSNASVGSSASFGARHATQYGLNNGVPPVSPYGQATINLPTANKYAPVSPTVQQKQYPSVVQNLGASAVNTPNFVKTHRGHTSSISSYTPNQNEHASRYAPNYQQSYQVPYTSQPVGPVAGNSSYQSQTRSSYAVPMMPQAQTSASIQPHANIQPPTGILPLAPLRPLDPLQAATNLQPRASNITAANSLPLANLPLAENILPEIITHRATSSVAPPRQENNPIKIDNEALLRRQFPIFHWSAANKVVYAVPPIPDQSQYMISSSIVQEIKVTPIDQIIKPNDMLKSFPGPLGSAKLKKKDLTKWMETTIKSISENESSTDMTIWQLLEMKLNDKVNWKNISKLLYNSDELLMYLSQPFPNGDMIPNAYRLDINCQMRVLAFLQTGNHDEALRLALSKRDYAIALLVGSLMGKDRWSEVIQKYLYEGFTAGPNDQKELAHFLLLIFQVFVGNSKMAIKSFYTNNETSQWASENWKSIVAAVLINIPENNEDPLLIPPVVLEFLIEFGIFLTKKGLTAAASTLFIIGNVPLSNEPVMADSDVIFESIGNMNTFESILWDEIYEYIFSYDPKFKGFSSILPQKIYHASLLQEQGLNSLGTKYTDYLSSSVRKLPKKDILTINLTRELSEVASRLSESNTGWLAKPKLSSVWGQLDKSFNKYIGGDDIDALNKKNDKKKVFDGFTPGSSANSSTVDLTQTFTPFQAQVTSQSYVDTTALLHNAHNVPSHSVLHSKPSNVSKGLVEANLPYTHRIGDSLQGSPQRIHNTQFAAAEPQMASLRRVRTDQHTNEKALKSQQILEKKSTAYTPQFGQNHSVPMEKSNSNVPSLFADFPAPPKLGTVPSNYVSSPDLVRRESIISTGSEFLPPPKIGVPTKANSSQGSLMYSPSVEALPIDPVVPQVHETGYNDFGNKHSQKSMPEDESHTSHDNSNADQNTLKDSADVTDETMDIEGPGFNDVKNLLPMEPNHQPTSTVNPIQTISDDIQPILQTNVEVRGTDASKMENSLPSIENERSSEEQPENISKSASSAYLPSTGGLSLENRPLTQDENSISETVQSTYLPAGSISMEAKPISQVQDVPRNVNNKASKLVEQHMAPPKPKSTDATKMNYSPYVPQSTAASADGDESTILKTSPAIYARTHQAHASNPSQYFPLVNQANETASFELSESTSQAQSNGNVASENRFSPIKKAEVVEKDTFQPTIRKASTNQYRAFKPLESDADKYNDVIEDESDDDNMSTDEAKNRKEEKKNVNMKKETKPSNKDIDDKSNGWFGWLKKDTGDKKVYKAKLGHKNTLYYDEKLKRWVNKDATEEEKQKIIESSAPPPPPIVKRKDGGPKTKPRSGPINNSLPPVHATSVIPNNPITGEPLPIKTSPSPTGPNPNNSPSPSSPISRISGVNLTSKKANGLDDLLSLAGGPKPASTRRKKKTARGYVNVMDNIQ

[3] = target: T1, MBP–Sec16p; remark: listed apart in the source

Binder: B1
binding result [1]: binds

Binder: B2
binding result [2]: binds

Binder: B3
binding result [3]: binds
